Target: T1, c-Cbl (endogenous, in PH3MT cell lysates) (human, UniProt P22681 1-906)
T1 construct: also called c-Cbl E3 ubiquitin ligase; CB1
Assay: method not described; Ras-transformed cells

B1: Sprouty2 (endogenous, in PH3MT human fibroblast lysates) (other)
chain: MEARAQSGNGSQPLLQTPRDGGRQRGEPDPRDALTQQVHVLSLDQIRAIRNTNEYTEGPTVVPRPGLKPAPRPSTQHKHERLHGLPEHRQPPRLQHSQVHSSARAPLSRSISTVSSGSRSSTRTSTSSSSSEQRLLGSSFSSGPVADGIIRVQPKSELKPGELKPLSKEDLGLHAYRCEDCGKCKCKECTYPRPLPSDWICDKQCLCSAQNVIDYGTCVCCVKGLFYHCSNDDEDNCADNPCSCSQSHCCTRWSAMGVMSLFLPCLWCYLPAKGCLKLCQGCYDRVNRPGCRCKNSNTVCCKVPTVPPRNFEKPT
notes: Endogenous protein of the H-Ras-transformed human fibroblast strain PH3MT; also called Spry2; human Sprouty-2
binding result: binds

From patent US20070066522A1 (MICHIGAN STATE UNIVERSITY, published 2007)
